Assay results published in EP4745157A1 (Korea Research Institute of Bioscience and Biotechnology, dated 2026).
Changes are numbered by the printed parent chain. Values belong to the binder of their own block, whether it stands above or below them.

How the values were obtained:
[1] = target: T1, TM4SF5-Fc antigen protein (UniProt O14894); assay: Biacore, TM4SF5-Fc immobilized directly on the chip
T1 sequence (looked up): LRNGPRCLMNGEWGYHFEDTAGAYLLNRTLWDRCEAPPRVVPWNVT

[2] = target: T2, TM4SF5 (antigen of SPR/BIACORE/ELISA, construct not stated) (UniProt O14894); assay: BIACORE
T2 sequence (looked up): T1 sequence (looked up)

[3] = target: T2, TM4SF5 (antigen of SPR/BIACORE/ELISA, construct not stated); assay: SPR
[4] = target: T3, hEC2-Fc-myc antigen (human) (UniProt O14894); assay: Octet (BLI), IgG against hEC2-Fc-myc
T3 sequence (looked up): T1 sequence (looked up)

[5] = target: T4, TM4SF5 (antigen of SPR/BIACORE/ELISA, construct not stated) (UniProt O14894 112-157, limits assumed); assay: SPR
T4 construct: also called TM4SF5 target
T4 chain (looked up): T1 sequence (looked up)

[6] = target: T3, hEC2-Fc-myc antigen (human); assay: ELISA, IgG against hEC2-Fc-myc

B2: EO1 H(G)L(GG) (antibody, V domains shown, not shown: a dimerising Fc or GST)
VH: EVQLVQSGADVKEPGASVKVSCKASGYTFTDYEMHWVRQAPGQGLEWMGAIDPETGGTAYNQKFKGWVTMTADKSISTAYMELSRLRSDDTAVYYCTRPYLGYWGQGTLVTVSS
VL: EIVLTQSPGMLSLSPGERATLSCRSSQSLVHRNGNTYLHWYQQKPGQAPRLLIYKVSNRFSGIPDRFSGSGSGTDFTLTISRLEPEDFAVYYCFQGSHIPLTFGQGTKVEIKG
- fold improvement in affinity against EO1 [2]: 2 fold

B4: 1-5 IgG (antibody, V domains shown)
VH: B2 VH with E1Q, D10E, E13K, A59F, Y60V, N61K, Q62R, W67R, T97A
VL: EIVLTQSPGTLSLSPGERATLSCRSSQSLVHSNGNTYLHWYQQKPGQAPRLLIYKVSNRFSGIPDRFSGSGSGTDFTLTISRLEPEDFAVYYCFQGSHIPLTFGQGTKVEIK
notes: IgG; also called T1-5
- fold improvement of KD relative to huAb27-9 [4]: 7.7 fold
- Kd [5]: 3.94 nM
- fold improvement of KD against chimeric Ab27 [5]: ~4 fold
- fold improvement of KD against humanized Ab27-hz9 [5]: ~2.4 fold

B5: S43 (G2) (antibody, V domains shown, not shown: a dimerising Fc or GST)
VH: B2 VH with E1Q, D10E, E13K, T28R, E54A, T55F, W67R, T97A
VL: B2 VL with M10T, R32S
- fold reduction in affinity against S43 [2]: 1.5 fold

B6: 2-1 IgG (antibody, V domains shown)
VH: B2 VH with E1Q, D10E, E13K, A59F, Y60V, N61V, Q62S, W67R, T97A
VL: B4 VL
- fold improvement of EC50 relative to huAb27-9 [6]: 41.4 fold
- fold improvement of KD relative to huAb27-9 [4]: 12.6 fold

B8: S43 IgG (antibody, V domains shown)
VH: B2 VH with E1Q, D10E, E13K, T28R, E54A, T55F, W67R, T97A
VL: B4 VL
notes: IgG1; also called huAb27-9_M74; M74
- Kd [5]: 4.19 nM
- fold improvement of KD against chimeric Ab27 [5]: ~4 fold
- fold improvement of KD against humanized Ab27-hz9 [5]: ~2.4 fold

Next, values leading:

- fold improvement of antigen-binding affinity against parent huAb27-9 [1]: 3 fold
B1: huAb27-9_E01 IgG (antibody, V domains shown)
VH: B2 VH
VL: B2 VL with G113R

- Kd [3]: 7.23 nM
- fold difference in affinity against Ab27 scFv-Fc [3]: 1.4 fold
B3: huAb27-9 scFv-Fc (Fc fusion, part only; not given: linker, domain order, hinge-Fc, not shown: another chain or arm of the molecule; a dimerising Fc or GST; small tags and cut ends)
VH: B2 VH with E1Q, D10E, E13K, W67R, T97A
VL: B4 VL

- Kd [5]: 9.46 nM
B7: huAb27-9 IgG (antibody, V domains shown)
VH: B2 VH with E1Q, D10E, E13K, W67R, T97A
VL: B2 VL with M10T, R32S, G113R
notes: IgG1 format; also called Hz#9 IgG; Hz #9 IgG
